From publication PMC5383425, “Differential CLE peptide perception by plant receptors implicated from structural and functional analyses of TDIF-TDR interactions” (PLoS ONE, 2017)
Residue numbers refer to the chain shown, from its start. Square brackets hold non-standard residues; d marks the D form. Ends that are not written are not given here. Hyp = O=C(O)[C@@H]1C[C@@H](O)CN1

Experiments:
Test in all cases: ITC; 0.5–1 mM peptide titrated into 10–40 μM ecdTDR; 25°C; 10 mM sodium citrate, 100 mM NaCl, pH 5.5; fitted to one set of binding sites; MicroCal Auto-iTC200
Settings in all cases: both partners purified
ecdTDR R138E mutant = target: T1, ecdTDR R138E mutant (Arabidopsis thaliana, UniProt Q9FII5 30-642, R138E)
T1 construct: TDR/PXY of A. thaliana, extracellular domain, residues 30-642; source: High Five insect cells (baculovirus), secreted, purified as the wild type (Ni-NTA, size-exclusion chromatography)
T1 sequence (looked up): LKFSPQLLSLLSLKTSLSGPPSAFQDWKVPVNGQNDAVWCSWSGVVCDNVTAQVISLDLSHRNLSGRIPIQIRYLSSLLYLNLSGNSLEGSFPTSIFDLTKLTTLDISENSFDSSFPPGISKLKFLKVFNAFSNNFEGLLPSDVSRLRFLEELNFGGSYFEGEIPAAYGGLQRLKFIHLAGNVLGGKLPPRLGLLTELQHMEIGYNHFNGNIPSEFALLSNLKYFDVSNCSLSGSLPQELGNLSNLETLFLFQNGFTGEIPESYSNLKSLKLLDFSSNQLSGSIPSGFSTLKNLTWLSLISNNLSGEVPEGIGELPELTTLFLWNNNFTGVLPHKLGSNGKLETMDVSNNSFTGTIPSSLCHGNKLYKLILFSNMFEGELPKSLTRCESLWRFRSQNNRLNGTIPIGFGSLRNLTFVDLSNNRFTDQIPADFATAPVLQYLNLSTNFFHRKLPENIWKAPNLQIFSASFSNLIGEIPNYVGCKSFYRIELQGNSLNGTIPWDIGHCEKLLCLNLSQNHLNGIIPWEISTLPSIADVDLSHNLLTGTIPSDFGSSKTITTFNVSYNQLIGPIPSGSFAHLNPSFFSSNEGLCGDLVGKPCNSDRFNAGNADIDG

[1] = target: T2, ecdTDR Y253 alanine mutant (Arabidopsis thaliana, UniProt Q9FII5 30-642, alanine substitution of Y253)
T2 construct: TDR/PXY of A. thaliana, extracellular domain, residues 30-642; The text says only 'mutational studies' of Y253; source: High Five insect cells (baculovirus), secreted, purified as the wild type (Ni-NTA, size-exclusion chromatography)
T2 sequence (looked up): T1 sequence (looked up) with E109R, Y224A

ecdTDR R421A mutant = target: T3, ecdTDR R421A mutant (Arabidopsis thaliana, UniProt Q9FII5 30-642, single alanine substitution of R421)
T3 construct: TDR/PXY of A. thaliana, extracellular domain, residues 30-642; also called single alanine substitution of R421; source: High Five insect cells (baculovirus), secreted, purified as the wild type (Ni-NTA, size-exclusion chromatography)
T3 sequence (looked up): T1 sequence (looked up) with E109R, R392A

Measured: binding result

B1: Tracheary Element Differentiation Inhibitory Factor (TDIF) peptide (peptide)
peptide: HEV[Hyp]SG[Hyp]NPISN
notes: TDIF, the 12-residue CLE peptide processed from CLE41 and CLE44 of A. thaliana; printed as HEV(Hyp)SG(Hyp)NPISN; numbers count on: the 12-residue peptide; CLE44 encodes the same peptide; also called wild type TDIF; wtTDIF; source: synthetic peptide (peptide 2.0)
binds: ecdTDR R138E mutant | [1] | ecdTDR R421A mutant
